From paper PMC9712106 (2022)

T1: PTRAMP–CSS heterodimer (disulfide-linked PfPTRAMP 42–309 and PfCSS 20–290) (P. falciparum)
T1 chain 1: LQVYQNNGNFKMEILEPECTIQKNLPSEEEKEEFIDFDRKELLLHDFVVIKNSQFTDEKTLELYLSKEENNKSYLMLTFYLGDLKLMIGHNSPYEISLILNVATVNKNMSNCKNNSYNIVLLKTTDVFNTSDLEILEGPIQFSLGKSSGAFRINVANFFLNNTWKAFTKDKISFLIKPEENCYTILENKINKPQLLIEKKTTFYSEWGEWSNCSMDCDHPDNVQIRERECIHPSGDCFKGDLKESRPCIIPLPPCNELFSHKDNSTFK
T1 chain 2: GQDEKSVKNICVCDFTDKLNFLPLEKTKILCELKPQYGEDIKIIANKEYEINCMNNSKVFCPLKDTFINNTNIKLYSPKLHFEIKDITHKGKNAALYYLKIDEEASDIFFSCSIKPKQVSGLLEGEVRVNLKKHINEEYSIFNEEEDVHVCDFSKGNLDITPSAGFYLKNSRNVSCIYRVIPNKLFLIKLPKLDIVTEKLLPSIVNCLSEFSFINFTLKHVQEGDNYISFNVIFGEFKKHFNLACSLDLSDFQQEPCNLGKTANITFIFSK

B1: PfCSS (residues 20 to 290) (domain or fragment)
chain: T1 chain 2
modifications: N-linked glycan on Asn88 (seen in the crystal structure)
B2: anti-PfPTRAMP nanobody H10 (VHH)
VHH: QVQLQESGGGLVQPGGSLRLSCAASGFTFDNYWMYWVRQAPGKGLEWVSAINTVGSHTYYADSVKGRFTISRDNAKNTLYLQMNSLKSEDTAVYYCAKGPWGFGTSGWGEMDYWGKGTQVTVSS
B3: anti-PfPTRAMP nanobody H8 (VHH)
VHH: QVQLQESGGGLVQPGGSLRLSCAASGFTFSSYWMYWVRQAPGKGLEWVSAINTGGGSTAYADSVKGRFTISRDNAKNTLYLQMNSLKSDDTAVYYCVKARGSSWSDRVFDYWGQGTQVTVSS
B4: anti-PfCSS nanobody B6 (VHH)
VHH: QVQLQESGGGLVQAGGSLRLSCAASGRTFSRYAMGWFRQAPGKEREFVAAISWSGGSTTYADSVKGRFTISRDNAKNTVYLQMNSLKPEDTAVYYCAAGDFIIGNMASEYEYWGQGTQVTVSS
B5: anti-PfCSS nanobody C9 (VHH)
VHH: QVQLQESGGGLVQAGDSLRLSCAASGRTFSSYAMGWFRQAPGKEREFVAAIAWNGGSTYYQDSVKGRFTISRDNAKNTVYLQMNSLKPEDTAVYYCAADDSYMSTMIHEYDYWGQGTQVTVSS
B6: D2 nanobody (anti-PfCSS, inhibitory) (VHH)
VHH: QVQLQESGGGLVQAGGSLRLSCAASGRTFSSYAMGWFRQAPGKEREFVAAISYSGSNTYDADSVKGRFAISRDNAKNTVYLQMNSLKPEDTAVYYCAAAGVYSGTYTDTEFDYWGQGTQVTVSS
B7: anti-PfCSS nanobody E12 (VHH)
VHH: QVQLQESGGGLVQAGGSLRLSCVASTRTFGNYAMAWFRQAPGKEREFVTTISASGGNTGAAPSVKGRFAISRDNAKNTVYLQMNSLKPEDTAVYYCAAASAYYSNDPARYTYWGQGTQVTVSS
B8: H2 nanobody (anti-PfCSS, non-inhibitory) (VHH)
VHH: QVQLQESGGGLVQPGGSLRLSCAASGSIFSTNAMGWYRQAPGKQREQVATITSGSSTNYADSVKGRFTISRDNAKNTVYLQMNSLKPEDTAVYYCNAAGATIDLADFGSWGQGTQVTVSS
B9: anti-PfCSS nanobody D1 (VHH)
VHH: QVQLQESGGGLVQAGGSLRLSCAASGRTFSSLAMGWFRQPPGKEREFVAAISYSSGSTYYADSVKGRFTISRDNAKNTVYLQMNSLKPEDTAVYYCAVTPPDTYISTMGHEYDYWGQGTQVTVSS
B10: anti-PfCSS nanobody F1 (VHH)
VHH: QVQLQESGGGLVQAGGPLRLSCVASGRTFSLHLMGWFRQAPGKEREFVAAISGSGGSTYYADSVKGRFTISRDNAKNTVYLQMNSLKPEDTAVYYCAADLENYMSTMLDGYNYWGQGTQVTVSS
B11: anti-PfCSS nanobody F7 (VHH)
VHH: QVQLQESGGGSVQVGDSLSLSCVASGRTFSTYALGWFRQAPGKEREFVAAASANGKVAPVTGSLRDRFSISRDNAKNTMYLQMNNLKPEDTAVYYCAAATGSEVFISTSPNVYDIWGQGTQVTVSS
B12: anti-PfCSS nanobody C1 (VHH)
VHH: QVQLQESGGGLVQAGGSLRLSCAASGRSFSSYAMGWFSQAPGKEREFVAAISWNGGSTYYADSVKGRFTISRNNAKNTVYLQMNSLKPEDTAVYYCAATEPEIYISTMAEGYDYWGQGTQVTVSS
B13: anti-PfCSS nanobody G5 (VHH)
VHH: QVQLQESGGGLVQAGGSLRLSCVASGRTFSSYGMGWFRQAPGKEREFVSAISSDAASRHYANSVKGRFTISRDNAKNTVTLQMSSLTPEDTAVYYCAAVHAYYSNYDGHYDYWGQGTQVTVSS
B14: anti-PfCSS nanobody B1 (VHH)
VHH: QVQLQESGGGLVQYGGSLRLSCAASGRTFSSYSMGWFRQAPGKEREFVAAISWTGGNTYYLGSTEGRFTISRDNAKNTVFLQMNNLKPEDTAVYYCAAKGRGSSWPTYDYRGQGTQVTVSS
B15: anti-PfCSS nanobody C10 (VHH)
VHH: QVQLQESGGGLVQAGGSLRLSCVASGRTFSNDAMGWFRQAPGKEREFVAAATRNGLGTGYADSVKGRFTISRDNAKNTVYLQMNSLKPEDTAVYYCAAASDAYYSNQRAAYDYWGQGTQVTVSS
B16: anti-PfCSS nanobody D9 (VHH)
VHH: QVQLQESGGGLVQAGGSLTLSCAASGRTFSRSAMGWFRQAPGKGREFVAAISSGDTSTYYMDSVKGRFTISRDSSKNTVYLQMNNLRPEDTAVYYCAADPKSYITTMISEYDIWGQGTQVTVSS

Each binder was assayed against T2, PfPTRAMP (residues 42 to 309), PMX cleaved ectodomain (P. falciparum, UniProt Q8I5M8) (assay: BLI).
B1 gave a Kd of 19000 nM.

Target: T2, PfPTRAMP (residues 42 to 309), PMX …
Assay: BLI
Remark: another data set of the same source
In the case of B2, the Kd is reported as 530 nM. Work on B3 yielded a Kd of 400 nM.

Target: B1
Assay: BLI
B4 gave a Kd of 0.66 nM. In the case of B5, the Kd is reported as 6.5 nM. B6 was tested, and the Kd was 4.4 nM. For B7, the Kd was 12 nM. Work on B8 yielded a Kd of 0.88 nM. For B9, the Kd was 2.6 nM. For B10, the Kd was 3.5 nM. For B11, the Kd was 5 nM. B12 showed a Kd of 0.99 nM. For B13, the Kd was 4.9 nM. Binder B14 has a Kd of 4 nM. B15 showed a Kd of 1.5 nM. Work on B16 yielded a Kd of 4.4 nM.

Target: T1, PTRAMP–CSS heterodimer …
Assay: BLI
In the case of B4, the Kd is reported as 2.5 nM. Binder B5 has a Kd of 12 nM. With B2 the Kd was 390 nM. B7 was tested, and the Kd was 16 nM. With B3 the Kd was 410 nM. B9 gave a Kd of 9 nM. B10 showed a Kd of 9.9 nM. For B11, the Kd was 9.9 nM. Binder B12 has a Kd of 6.8 nM. With B13 the Kd was 7 nM. For B14, the Kd was 5.6 nM. Binder B15 has a Kd of 12 nM. Binder B16 has a Kd of 11 nM.
